Reference: US7674604 (CENTER FOR BLOOD RESEARCH, dated 2010)

What was measured:
murine ICAM-1 = murine ICAM-1 (murine, UniProt P13597 28-485, limits assumed); assay: cell-based or functional assay
[1] = target: T1, ICAM-1 purified from human tonsil, coated on 96-well plates (human, UniProt P05362 28-532); assay: competition: soluble I-domain against adhesion of K562 cells with wild-type LFA-1 (activated by mAb CBRLFA-1/2) to plate-coated ICAM-1; cells bound (% of input)
T1 construct: mature; also called immobilized ICAM-1

B1: recombinant soluble αL I-domain K287C/K294C (G128 to Y307) stabilized in the open conformation, made in E. coli (receptor)
chain: GNVDLVFLFDGSMSLQPDEFQKILDFMKDVMKKLSNTSYQFAAVQFSTSYKTEFDFSDYVKRKDPDALLKHVKHMLLLTNTFGAINYVATEVFREELGARPDATKVLIIITDGEATDSGNIDAAKDIIRYIIGIGKHFQTKESQETLHKFASKPASEFVCILDTFECLKDLFTELQKKIY
modifications: chain 1: disulfide between C160 and C167 (mature C287, C294)
notes: also called open I-domain; soluble open I-domain
Murine ICAM-1
  IC50 (read off the curve), PMA-induced homotypic aggregation of EL-4 cells (aggregation score 0 to 5): ~1000 nM
[1]
  IC50 (read off the curve): ~200 nM
